Target: T1, Recombinant human E-selectin/Fc chimera (human, UniProt P16581 22-556)
T1 sequence (looked up): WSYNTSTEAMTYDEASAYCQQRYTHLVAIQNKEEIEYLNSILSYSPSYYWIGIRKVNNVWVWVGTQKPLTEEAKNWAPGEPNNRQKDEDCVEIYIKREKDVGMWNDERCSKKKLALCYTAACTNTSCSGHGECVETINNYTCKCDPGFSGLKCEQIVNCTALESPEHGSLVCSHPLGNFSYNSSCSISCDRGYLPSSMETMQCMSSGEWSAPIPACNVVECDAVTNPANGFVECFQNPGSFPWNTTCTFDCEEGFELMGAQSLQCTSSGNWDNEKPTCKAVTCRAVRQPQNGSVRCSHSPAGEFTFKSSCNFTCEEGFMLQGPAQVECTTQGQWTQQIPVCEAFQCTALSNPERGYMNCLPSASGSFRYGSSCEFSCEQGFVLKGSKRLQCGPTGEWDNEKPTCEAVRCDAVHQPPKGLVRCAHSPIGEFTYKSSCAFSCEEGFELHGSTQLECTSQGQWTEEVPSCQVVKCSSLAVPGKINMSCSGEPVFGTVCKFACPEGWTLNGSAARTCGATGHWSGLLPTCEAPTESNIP
Assay: SPR

Binder: SETTTGTSSNSSQSTSNSGLAPNPTNATTKAAG (natural protein, UniProt P25063 27-59, looked up) [Recombinant human CD24]
- Ka: 3.18e+08 M⁻¹
- Kd: 3.4 nM
- koff: 0.0016 s⁻¹
- kon: 379000 M⁻¹ s⁻¹

Reference: paper PMC3059340 (Analytical chemistry, 2011)
